The values below come from patent publication US9707290.

Like-named read-outs stand apart in the source and are kept apart here.

The target in test [1] is germline 10E8 (predicted germline precursor to 10E8). Kind of test: SPR.
A further test has as its target 4E10 antibody. The test can be described thus: SPR. In general terms: Surface plasmon resonance follows binding to a sensor surface in real time, without labels.
Test [2] addresses 10E8 antibody. Kind of test: SPR.
The target of another test is germline 4E10. The test can be described thus: SPR.
The target of test [3] is germline 10E8 (predicted germline precursor to 10E8). The test can be described thus: SPR. The source holds these as a separate data set.
In test [4] the target is 10E8 antibody. Kind of test: SPR, antibody on the sensor.
The target of test [5] is 10E8 antibody. The test can be described thus: SPR; reference 10E8_T298v2.
In test [6] the target is 10E8 antibody. The test can be described thus: SPR. This is another data set of the same source.
The target of test [7] is 10E8 antibody. The test can be described thus: SPR; reference 10E8_T117v2.

B1: 10E8_T93v2RT12-1 (designed binder)
chain: GKADEVREKARRRMEQAVEEFKRRLRQFEEKVKQKEPRDDEINRWIDIVKKKADEAKKRVEEVGDQAADEAAQLGNDPNVNWFDITNVLWDVKKLTEKAINDIDDALKKMKDWLESGLEHHHHHH
In the case of B1, the Kd (commonly the free concentration of one partner at which half of the binding sites on the other are occupied at equilibrium, for simple one-to-one binding) in [1] is 290000 to 720000 nM; with 4E10 antibody it was 0.018 nM; with 10E8 antibody [2] it was 0.04 nM.

B2: 10E8_T93v2RT12-4 (designed binder)
chain: GKADEVREKARRRMEQAVEEFKRRLRQFEEKVKQKEPRDDEINRWIDIVKKKADEAKKRVEEVGDQAADEAAQLGNDPNVNWFDISRVLWDVKKLTEKAINDIDDALKKMKDWLESGLEHHHHHH
As for B2, the Kd in the test with 10E8 antibody [2] was found to be 2.7 nM.

B3: 10E8_T93v2RT12-3 (designed binder)
chain: GKADEVREKARRRMEQAVEEFKRRLRQFEEKVKQKEPRDDEINRWIDIVKKKADEAKKRVEEVGDQAADEAAQLGNDPNVSWFNISNVLWDVRKLTEKAINDIDDALKKMKDWLESGLEHHHHHH
With B3, the results for the dissociation constant Kd with 4E10 antibody and with 10E8 antibody [2] were 0.58 nM and 0.11 nM, respectively.

B4: 10E8_T93v2RT12-5 (designed binder)
chain: GKADEVREKARRRMEQAVEEFKRRLRQFEEKVKQKEPRDDEINRWIDIVKKKADEAKKRVEEVGDQAADEAAQLGNDPNVNWFDITQVLWDVKKLTEKAINDIDDALKKMKDWLESGLEHHHHHH
In the test with 10E8 antibody [2], B4 showed a dissociation constant (Kd) of 0.022 nM.

B5: 10E8_T117v2-1_RSF1 (designed binder)
chain: NAMAGIVFRKHYVRHLGKTVTQNEIIRALAAPLISDGMVVKDFADHVIKREEQNPTGLPVQPVGVAIPHTDSKYVYYNAISVGILQEPVAFEDAGGDGRPVPVRVVFMLALGNWFDITNVLWWIKAVIQDDEFMKRLLYMTDDKIYESIRKRIYDLE
For B5, the Kd in the test with germline 4E10 was 0.1 nM; with 4E10 antibody, 0.1 nM; in the test with 10E8 antibody [2] it was 0.05 nM.

B6: 10E8_T117v2-1_g28_g91012 (designed binder)
chain: NAMQGIHFRRHYVRHLPKNVSQNDIIKALASPLINDGMVVSDFADHVITRENNSPTGLPVEPVGVAIPHTDSKYVNQSAISVGILAEPVNFEDANGTPDPVPVRVVFMLALGNWFDITNVLWWIKAVIQDEDFMQQLLNMSDDEIYQSIYTRISE
modifications: added N-linked glycosylation sites (glycan-masked)
Turning to B6, the Kd in the test with germline 4E10 is 0.5 nM; in the test with 4E10 antibody, 0.49 nM; in the test with 10E8 antibody [2], 0.18 nM.

B7: 10E8_T117v2-1 (designed binder)
chain: NAMQGIHFRRHYVRHLPKEVSQNDIIKALASPLINDGMVVSDFADHVITREQNFPTGLPVEPVGVAIPHTDSKYVRQNAISVGILAEPVNFEDAGGEPDPVPVRVVFMLALGNWFDITNVLWWIKAVIQDEDFMQQLLVMNDDEIYQSIYTRISELEHHHHHH
Regarding B7, the Kd in test [3] was 30000 nM; in the test with 10E8 antibody [4] it was 0.091 nM; in [1] it was 6000 nM; in the test with germline 4E10, 0.187 nM; in the test with 4E10 antibody it was 0.168 nM; with 10E8 antibody [2] it was 0.082 nM.

B8: 10E8_T117v2-2 (designed binder)
chain: NAMQGIHFRRHYVRHLPKEVSQNDIIKALASPLINDGMVVSDFADHVITREQNFPTGLPVEPVGVAIPHTDSKYVRQNAISVGILAEPVNFEDAGGEPDPVPVRVVFMLALGNWFSITKVLWWIKAVIQDEDFMQQLLVMNDDEIYQSIYTRISELEHHHHHH
For B8, the Kd in the test with 4E10 antibody was determined as 0.0538 nM; with 10E8 antibody [2], 1.3 nM.

B9: 10E8_T117v2-5 (designed binder)
chain: NAMQGIHFRRHYVRHLPKEVSQNDIIKALASPLINDGMVVSDFADHVITREQNFPTGLPVEPVGVAIPHTDSKYVRQNAISVGILAEPVNFEDAGGEPDPVPVRVVFMLALGNWFDITQVLWWIKAVIQDEDFMQQLLVMNDDEIYQSIYTRISELEHHHHHH
Regarding B9, in the test with 10E8 antibody [2], the Kd came out at 0.155 nM.

B10: 10E8_T117v2-4 (designed binder)
chain: NAMQGIHFRRHYVRHLPKEVSQNDIIKALASPLINDGMVVSDFADHVITREQNFPTGLPVEPVGVAIPHTDSKYVRQNAISVGILAEPVNFEDAGGEPDPVPVRVVFMLALGNWFDISRVLWWIKAVIQDEDFMQQLLVMNDDEIYQSIYTRISELEHHHHHH
As for B10, the Kd in test [1] is 8000 nM; with germline 4E10 it was 3.2 nM; with 4E10 antibody it was 3.9 nM; in the test with 10E8 antibody [2], 0.59 nM.

B11: 10E8_T117v2-3 (designed binder)
chain: NAMQGIHFRRHYVRHLPKEVSQNDIIKALASPLINDGMVVSDFADHVITREQNFPTGLPVEPVGVAIPHTDSKYVRQNAISVGILAEPVNFEDAGGEPDPVPVRVVFMLALGSWFNISNVLWWIRAVIQDEDFMQQLLVMNDDEIYQSIYTRISELEHHHHHH
For B11, the Kd in [1] was 8000 nM; with 4E10 antibody, 0.526 nM; with 10E8 antibody [2], 0.925 nM.

B12: 4E10_T298 (designed binder)
chain: GHHHHHHGSEVSQNDIIKALASPLINDGMVVSDFADHVITREQNAPTGLPVEPVGVAIPHTDSKYVRQNAISVGILAEPVNFEDAGGEPDPVPVRVVFMLALGNWFDITNVLWWIMDVIQDADFMQQLLVMNDDEIYQSIYTRISEAAGMAGIHFRRHYVRHLPLEHHHHHH
B12 gave a factor weaker than the corresponding 10E8 scaffold in the test with 10E8 antibody [5] of 30 fold. Besides, the Kd with 10E8 antibody [6] is 3 nM.

B13: 10E8_T298v2 (designed binder)
chain: GSEVSQNDIIKALASPLINDGMVVSDFADHVITREQNAPTGLPVEPVGVAIPHTDSKYVRQNAISVGILAEPVNFEDAGGEPDPVPVRVVFMLALGNWFDITNVLWWIKAVIQDADFMQQLLRMNDDEIYQSIYTRISEAAGMAGIHFRRHYVRHLGLEHHHHHH
Regarding B13, the Kd is 105000 nM in test [3] and 0.172 nM with 10E8 antibody [4].

B14: 4E10_T117 (designed binder)
chain: HHHHHHNAMQGIHFRRHYVRHLPKEVSQNDIIKALASPLINDGMVVSDFADHVITREQNFPTGLPVEPVGVAIPHTDSKYVRQNAISVGILAEPVNFEDAGGEPDPVPVRVVFMLALGNWFDITNVLWWIMDVIQDEDFMQQLLVMNDDEIYQSIYTRISE
In the test with 10E8 antibody [6], B14 returned an equilibrium dissociation constant (Kd) of 3 nM. In addition, in the test with 10E8 antibody [7], the factor weaker than the corresponding 10E8 scaffold was determined as 30 fold.
